{
  "source": "paper PMC6684406",
  "about": "(Nature structural & molecular biology, 2019)",
  "target": "T1, Pmt1 (protein O-mannosyltransferase 1), C-terminal 3×FLAG-tagged (S. cerevisiae, UniProt P33775 1-817, N-glycan on N390)",
  "T1 sequence (looked up)": "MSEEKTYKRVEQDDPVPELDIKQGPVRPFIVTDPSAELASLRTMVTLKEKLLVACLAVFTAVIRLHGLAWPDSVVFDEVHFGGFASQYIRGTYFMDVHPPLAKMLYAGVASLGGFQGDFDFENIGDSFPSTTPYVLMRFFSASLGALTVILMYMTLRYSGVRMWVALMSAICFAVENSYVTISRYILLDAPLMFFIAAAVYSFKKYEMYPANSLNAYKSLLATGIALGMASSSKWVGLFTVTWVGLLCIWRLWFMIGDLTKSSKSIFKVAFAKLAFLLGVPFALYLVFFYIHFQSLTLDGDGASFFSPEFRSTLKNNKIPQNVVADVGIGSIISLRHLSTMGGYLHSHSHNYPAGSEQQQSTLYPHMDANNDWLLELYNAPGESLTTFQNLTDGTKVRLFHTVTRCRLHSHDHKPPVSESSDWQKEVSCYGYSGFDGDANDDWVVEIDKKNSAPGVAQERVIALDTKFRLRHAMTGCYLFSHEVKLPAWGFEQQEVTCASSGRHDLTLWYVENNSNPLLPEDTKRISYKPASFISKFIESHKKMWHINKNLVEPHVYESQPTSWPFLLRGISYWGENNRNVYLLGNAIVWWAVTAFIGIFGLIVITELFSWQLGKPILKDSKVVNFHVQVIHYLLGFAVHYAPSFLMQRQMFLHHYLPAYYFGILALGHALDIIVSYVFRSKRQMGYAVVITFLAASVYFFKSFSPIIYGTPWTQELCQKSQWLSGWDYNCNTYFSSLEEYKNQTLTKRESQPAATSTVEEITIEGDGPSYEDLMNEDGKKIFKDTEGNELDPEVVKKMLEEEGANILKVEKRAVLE",
  "test": "cryo-EM structure",
  "data": [
    {"binder": "Pmt2 (protein O-mannosyltransferase 2) (enzyme, S. cerevisiae, UniProt P31382 1-759, looked up, N-glycan on N131) MSSSSSTGYSKNNAAHIKQENTLRQRESSSISVSEELSSADERDAEDFSKEKPAAQSSLLRLESVVMPVIFTALALFTRMYKIGINNHVVWDEAHFGKFGSYYLRHEFYHDVHPPLGKMLVGLSGYLAGYNGSWDFPSGEIYPDYLDYVKMRLFNASFSALCVPLAYFTAKAIGFSLPTVWLMTVLVLFENSYSTLGRFILLDSMLLFFTVASFFSFVMFHNQRSKPFSRKWWKWLLITGISLGCTISVKMVGLFIITMVGIYTVIDLWTFLADKSMSWKTYINHWLARIFGLIIVPFCIFLLCFKIHFDLLSHSGTGDANMPSLFQARLVGSDVGQGPRDIALGSSVVSIKNQALGGSLLHSHIQTYPDGSNQQQVTCYGYKDANNEWFFNRERGLPSWSENETDIEYLKPGTSYRLVHKSTGRNLHTHPVAAPVSKTQWEVSGYGDNVVGDNKDNWVIEIMDQRGDEDPEKLHTLTTSFRIKNLEMGCYLAQTGNSLPEWGFRQQEVVCMKNPFKRDKRTWWNIETHENERLPPRPEDFQYPKTNFLKDFIHLNLAMMATNNALVPDPDKFDYLASSAWQWPTLNVGLRLCGWGDDNPKYFLLGTPASTWASSVAVLAFMATVVILLIRWQRQYVDLRNPSNWNVFLMGGFYPLLAWGLHYMPFVIMSRVTYVHHYLPALYFALIILAYCFDAGLQKWSRSKCGRIMRFVLYAGFMALVIGCFWYFSPISFGMEGPSSNFRYLNWFSTWDIADKQEA", "values": [
      {"measurement": "stoichiometry N", "value": 1}
    ]}
  ]
}
